Experimental data taken from patent US20220041716A1 (BEIJING NEOLETIX BIOLOGICAL TECHNOLOGY, published 2022).

T1: human extracellular domain of TLT-1-Fc tagged protein (sTLT-1-Fc) (human, UniProt Q86YW5 16-162)
T1 construct: also called SILT-1-Fc; extracellular domain of human TLT-1; not shown: Fc tag
T1 sequence: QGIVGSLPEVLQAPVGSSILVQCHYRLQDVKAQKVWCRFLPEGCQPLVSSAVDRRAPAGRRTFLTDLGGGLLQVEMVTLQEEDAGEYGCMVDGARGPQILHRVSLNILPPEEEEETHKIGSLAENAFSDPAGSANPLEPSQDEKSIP

T2: human extracellular domain of TLT-1-Fc tagged protein (sTLT-1-Fc) (UniProt Q86YW5 16-162)
T2 chain: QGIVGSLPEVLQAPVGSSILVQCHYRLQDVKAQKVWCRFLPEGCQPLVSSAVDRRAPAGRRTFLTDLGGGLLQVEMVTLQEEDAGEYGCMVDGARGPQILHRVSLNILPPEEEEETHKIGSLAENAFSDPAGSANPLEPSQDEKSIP

T3: mouse TLT-1 on activated mouse platelets (mouse, UniProt Q8K558 21-317)
T3 construct: whole, on cells
T3 sequence (looked up): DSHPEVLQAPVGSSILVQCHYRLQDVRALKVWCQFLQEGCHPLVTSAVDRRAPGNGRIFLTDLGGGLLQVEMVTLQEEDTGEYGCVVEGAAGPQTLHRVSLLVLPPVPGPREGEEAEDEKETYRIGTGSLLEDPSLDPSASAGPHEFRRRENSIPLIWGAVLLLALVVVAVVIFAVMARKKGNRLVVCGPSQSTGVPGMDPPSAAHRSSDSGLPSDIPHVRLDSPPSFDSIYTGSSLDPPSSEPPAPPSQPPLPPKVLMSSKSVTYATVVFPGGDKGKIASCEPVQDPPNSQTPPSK


How the values were obtained:
[1] = biological target: T1, human extracellular domain of TLT-1-Fc …; test: ELISA, human TLT-1 extracellular domain coated, anti-His-HRP detection, Kd fitted from OD450
Protocol: The extracellular domain of human TLT-1 protein was coated onto a 96-well plate for ELISA. After 24 hours incubation at 4° C. and 2 hours of blocking at room temperature (RT) with the blocking buffer, increasing concentrations of ten anti-TLT-1 sdAbs, sTF₂₀₉-PC1sdAb 2-33TLT-His and sTF₂₀₉-PC2sdAb 2-90TLT-His proteins were added to the respective wells for 1-hour incubation at RT. Anti-His tag—HRP-labeled antibody was used to evaluate the binding.
The binding of sdAb 2-33TLT-His, sdAb 2-132TLT-His, sdAb 2-25TLT-His, sdAb 2-64 TLT-His, sdAb 2-90TLT-His, sdAb 2-127TLT-His, sdAb 2-2 TLT-His, sdAb 3-32TLTcur-His; sdAb 3-38TLT-His and sdAb 2-69TLT-His, sTF₂₀₉-PC1-sdAb 2-33TT-His and s TF₂₀₉-PC1-sdAb 2-90TLT-His proteins to the human extracellular domain of TLT-1-Fc tagged protein (sTLT-1-Fc) was analyzed using ELISA, sTLT-1-Fc (3 μg/ml) was immobilized onto a 96-well plate for 24 hours at 4° C. and each well immobilized with SILT-1-Fc was blocked with 2% BSA PBST (PBS plus 0.1% Tween 20) for 2 hours at room temperature (RT). Serial dilution (1000 nM to 0.001 nM) of TLT-sdAbs and sTF-sdAb fusion proteins was performed and diluted proteins were then added to the coated 96-well platelet and incubated for 1 hour. After 3 times of washing with PBST, anti-His HRP antibody was added and incubated for 1 hour at RT. The plate was then washed for 3 times to remove the excess HRP conjugate and 100 μL TMB substrate was then added and incubated for 10-15 mins. To stop the reaction of color development, 2M sulfuric acid was added to the well.

[2] = biological target: T2, human extracellular domain of TLT-1-Fc …; test: ELISA
[3] = biological target: T3, mouse TLT-1 on activated mouse platelets; test: flow cytometry, collagen-activated mouse platelets in whole blood, FITC anti-His detection
Protocol: To prepare activated human platelets, ADP (5 and 20 μM) were preincubated with human whole blood and the above proteins were then added to the ADP-treated whole blood. To prepare activated mouse platelets, collagen, at either 5 μg/ml or 10 μg/ml, was preincubated with mouse whole blood and the above proteins were then added to the […] whole blood. The binding of the proteins with platelets was detected with FITC-labeled—anti-His tag antibody.
The binding capability of sdAb 2-33TLT-His, sdAb sTF₂₀₉-PC1-sdAb 2-33TLT-His and sTF₂₀₉-PC1-sdAb 2-90TLT-His proteins to both human and mouse resting and activated platelets was tested by FACS assay. Citrated human (3 donors) and mouse (12 mice) whole blood were collected at room temperature (RT) and 10 μL of whole blood was used for each sample. To activate human platelets, ADP (5 and 20 μM) was used, and incubated with whole blood for 10 min at room temperature (RT). To activate mouse platelet, Type I fibrillary collagen (5 and 10 ug/ml) was used and incubated with whole blood for 10 min at room temperature (RT). […] After incubation for 30 min at room temperature, all samples were fixed with 500 μL of 5% paraformaldehyde for 10 min at RT and. analyzed by FACS (LSR II, Beckon Dickinson, San Jose, Calif.).

[4] = biological target: T2, human extracellular domain of TLT-1-Fc …; test: ELISA; second row printed 2-33; plot key shows sdAb 2-90TLT-His
[5] = biological target: T2, human extracellular domain of TLT-1-Fc …; test: ELISA

| Binder | Kd [1] [nM] | Kd [2] [nM] | binding result [3] | Kd [4] [nM] | Kd [5] [nM] |
| --- | --- | --- | --- | --- | --- |
| sdAb 2-90TLT-His (VHH, also called sdAb-2-90-His) VHH: QVQLVESGGGLVQAGGSLTLSCAASGSTSGINVMAWYRQAPGKQRELVANKARGGLPKYADFAKGRFTISRDNTKNTISLQMNSLKPEDTAVYYCNALLDWRLGDYWGQGTQVTVSS | < 10 | 2.39 | binds | 2.67 |  |
| sdAb 2-33TLT-His (VHH, also called sdAb-2-33-His) VHH: QVQLVESGGGLVQPGGSLTLSCAASGSIANIGGMAWYRRLPGNKRAMVASITSAGTASSYIDSVKGRFTISRDNAKNTVYLQMTSLKPEDTAVYLCKAWDRDLVDYWGQGIQVTVSS | < 10 | 2.74 |  |  | 4.47 |
| sTF209-PC1-sdAb 2-33TLT-His (other, the entry also holds vector-derived N-terminal residues; also called sTF209-PC1-dAb 2-33TLT-His; sTF209-sdAb 2-33TLT-His) MASMSGTTNTVAAYNLTWKSTNFKTILEWEPKPVNQVYTVQISTKSGDWKSKCFYTTDTECDLTDEIVKDVKQTYLARVFSYPAGNVESTGSAGEPLYENSPEFTPYLETNLGQPTIQSFEQVGTKVNVTVEDERTLVRRNNTFLSLRDVFGKDLIYTLYYWKSSSSGKKTAKTNTNEFLIDVDKGENYCFSVQAVIPSRTVNRKSTDSPVECGSGGGTGGGSGGSGGGTGGGSGAIEPRSFSQNQVQLVESGGGLVQPGGSLTLSCAASGSIANIGGMAWYRRLPGNKRAMVASITSAGTASSYIDSVKGRFTISRDNAKNTVYLQMTSLKPEDTAVYLCKAWDRDLVDYWGQGIQVTVSSHHHHHH | < 10 |  |  |  | 2.28 |
| sTF209-PC1-sdAb 2-90TLT-His (other, the entry also holds vector-derived N-terminal residues) MASMSGTTNTVAAYNLTWKSTNFKTILEWEPKPVNQVYTVQISTKSGDWKSKCFYTTDTECDLTDEIVKDVKQTYLARVFSYPAGNVESTGSAGEPLYENSPEFTPYLETNLGQPTIQSFEQVGTKVNVTVEDERTLVRRNNTFLSLRDVFGKDLIYTLYYWKSSSSGKKTAKTNTNEFLIDVDKGENYCFSVQAVIPSRTVNRKSTDSPVECGSGGGTGGGSGGSGGGTGGGSGAIEPRSFSQNQVQLVESGGGLVQAGGSLTLSCAASGSTSGINVMAWYRQAPGKQRELVANKARGGLPKYADFAKGRFTISRDNTKNTISLQMNSLKPEDTAVYYCNALLDWRLGDYWGQGTQVTVSSHHHHHH | < 10 |  | binds |  | 1.19 |
